{"source": "patent US20250059270A1", "binders": {"B1": {"name": "Tocilizumab (antibody, part only; not given: constant regions, V domains shown, not shown: another chain or arm of the molecule)", "VH": "QVQLQESGPGLVRPSQTLSLTCTVSGYSITSDHAWSWVRQPPGRGLEWIGYISYSGITTYNPSLKSRVTMLRDTSKNQFSLRLSSVTAADTAVYYCARSLARTTAMDYWGQGSLVTVSS", "VL": "DIQMTQSPSSLSASVGDRVTITCRASQDISSYLNWYQQKPGKAPKLLIYYTSRLHSGVPSRFSGSGSGTDFTFTISSLQPEDIATYYCQQGNTLPYTFGQGTKVEIK"}}, "key": {"[1]": {"biological_target": "hyper IL-6", "assay": "cell-based or functional assay"}, "[2]": {"biological_target": "human IL-6R on HEK-Blue IL6 reporter cells (human) (UniProt P08887)", "sequence (P08887 20-468)": "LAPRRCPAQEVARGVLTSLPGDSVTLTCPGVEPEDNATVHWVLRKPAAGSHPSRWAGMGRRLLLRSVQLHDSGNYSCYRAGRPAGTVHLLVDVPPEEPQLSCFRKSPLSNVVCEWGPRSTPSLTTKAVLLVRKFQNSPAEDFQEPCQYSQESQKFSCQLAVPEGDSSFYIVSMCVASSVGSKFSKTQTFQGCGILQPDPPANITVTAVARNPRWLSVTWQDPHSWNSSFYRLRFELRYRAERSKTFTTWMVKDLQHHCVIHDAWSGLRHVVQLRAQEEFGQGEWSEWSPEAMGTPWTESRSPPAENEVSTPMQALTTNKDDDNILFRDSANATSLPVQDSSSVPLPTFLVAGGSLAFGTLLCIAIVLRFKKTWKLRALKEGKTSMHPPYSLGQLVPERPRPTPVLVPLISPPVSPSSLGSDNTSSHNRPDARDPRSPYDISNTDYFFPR", "assay": "cell-based or functional assay"}}}
{"binder": "B1", "values": [{"measurement": "trans-signaling, HEK-Blue IL6 cells, 200 pM hyper IL-6", "setting": "[1]", "result": "> 1", "unit": "µM"}, {"measurement": "IC50, HEK-Blue IL6 reporter cells, 20 pM IL-6", "setting": "[2]", "result": 1490, "unit": "pM"}, {"measurement": "IC50, cis-signaling, HEK-Blue IL6 cells, 20 pM free IL-6", "setting": "[2]", "result": 12.9, "unit": "nM"}, {"measurement": "IC90, HEK-Blue IL6 reporter cells, 20 pM IL-6", "setting": "[2]", "result": 23700, "unit": "pM"}]}
